This is an account of results in patent US20260242478A1 (published 2026).

Where no end group is shown, it is not given here.

The target of test [1] is T1, PSMA Fab.
T1 construct: Biotinylated and captured on neutravidin plates in the phage ELISA; also called anti-PSMA Fab; 006 PSMA Fab
Description: clonal phage ELISA on biotinylated PSMA Fab captured on neutravidin plates, anti-M13-HRP detection, no PSMA antigen. Background: ELISA stands for enzyme-linked immunosorbent assay.
Description: (§1) Clonal phage were harvested as crude supernatants and screened via standard ELISAs. […] Prior to the addition of clonal phage. wells were incubated with blocking buffer and PSMA antigen or blocking buffer alone. Without washing or aspirating, clonal phage supernatants were then added to the wells and incubated for a short time. Wells were then washed followed by detection of bound phage using a horse radish conjugated anti-M13 antibody.

In test [2] the target is T1, PSMA Fab. Nature of the test: clonal phage ELISA on captured PSMA Fab, wells pre-incubated with PSMA antigen as competitor, anti-M13-HRP detection.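 Further: crude clonal phage supernatants added without washing after the PSMA preincubation, comparison wells received blocking buffer alone without PSMA, bound phage read after washing.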
Description: as §1
In test [3] the target is T2, Anti-PSMA Fab.
T2 construct: Biotinylated and captured on neutravidin coated plates in the panning ELISA; also called 006 PSMA Fab
Description: phage ELISA; biotinylated PSMA Fab on neutravidin plate, clonal phage supernatant, anti-M13-HRP detection.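 Further: wells were preincubated with blocking buffer containing PSMA antigen or with blocking buffer only, then phage supernatant was added without washing for a brief incubation.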
Description: as §1

Test [4] addresses T2, Anti-PSMA Fab. Description: phage ELISA; PSMA Fab on plate pre-incubated with PSMA antigen (competitor), anti-M13-HRP detection.
Description: as §1
Test [5] addresses T3, PSMA Fab (006 PSMA Fab).
T3 construct: also called Anti-PSMA Fab; anti-PSMA Fab
Nature of the test: phage ELISA; clonal phage supernatant on biotinylated PSMA Fab captured on neutravidin plate, anti-M13 HRP detection.
Description: as §1

Test [6] has as its target T3, PSMA Fab (006 PSMA Fab). Description: phage ELISA; clonal phage on plate-captured PSMA Fab pre-incubated with PSMA antigen as competitor, anti-M13 HRP detection.
Description: as §1

B1: Phage-2899 (peptide)
peptide: MEIRCTPPWMCMGF
Regarding B1, in test [1], the “phage binding ELISA signal” value came out at 2.34. The “phage binding ELISA signal in presence of PSMA” value in test [2] was found to be 0.0795.

B2: Phage-2897 (peptide)
peptide: HDKLCRPAWMCNGF
For B2, in test [1], the “phage binding ELISA signal” value worked out at 2.35. In test [2], the “phage binding ELISA signal in presence of PSMA” value was found to be 0.107.

B3: Phage-2914 (peptide)
peptide: GLALCKPEWMCIGF
notes: also called peptide-180 library clone
Take B3: the “Phage binding ELISA signal, Anti-PSMA Fab” value in test [3] worked out at 2.32. The “Phage binding ELISA signal, Anti-PSMA Fab in presence of PSMA” value in test [4] was determined as 0.0815.

B4: Phage-2904 (peptide)
peptide: VFPACVPNWMCVGF
For B4, the “phage binding ELISA signal” value in test [1] stood at 2.33. Further, the “phage binding ELISA signal in presence of PSMA” value in test [2] came out at 0.129.

B5: Phage-2905 (peptide)
peptide: PSHYCVPAWMCAGF
modifications: cysteine pairing not given here; also: peptide displayed as fusion to phage pIII
For the molecule B5, the “phage binding ELISA signal” value in test [1] turned out to be 2.33. Further, in test [2], the “phage binding ELISA signal in presence of PSMA” value amounted to 0.0875.

B6: Phage-2917 (peptide)
peptide: LDVLCKPTWMCMGF
notes: as for B3
As for B6, the “Phage binding ELISA signal, Anti-PSMA Fab” value in test [3] amounted to 2.32. Further, the “Phage binding ELISA signal, Anti-PSMA Fab in presence of PSMA” value in test [4] is 0.0821.

B7: Phage-2912 (peptide)
peptide: AVHYCQPSWMCTGF
notes: as for B3
For B7, the “Phage binding ELISA signal, Anti-PSMA Fab” value in test [3] was 2.33. In test [4], the “Phage binding ELISA signal, Anti-PSMA Fab in presence of PSMA” value was found to be 0.0814.

B8: Phage-2902 (peptide)
peptide: QTVMCRPAWMCVGF
For the molecule B8, the “phage binding ELISA signal” value in test [1] was 2.34. Also, in test [2], the “phage binding ELISA signal in presence of PSMA” value was 0.092.

B9: Phage-2915 (peptide)
peptide: GGLLCKPAWMCNWL
notes: as for B3
For the molecule B9, the “Phage binding ELISA signal, Anti-PSMA Fab” value in test [3] amounted to 2.32. Moreover, in test [4], the “Phage binding ELISA signal, Anti-PSMA Fab in presence of PSMA” value was determined as 0.116.

B10: Phage-2896 (peptide)
peptide: IERMCRPAWMCDGF
Consider B10, for which the “phage binding ELISA signal” value in test [1] is 2.35. Besides, in test [2], the “phage binding ELISA signal in presence of PSMA” value was found to be 0.188.

B11: Phage-2895 (peptide)
peptide: QALMCVPEWMCLGF
For B11, the “phage binding ELISA signal” value in test [1] was determined as 2.35. Moreover, the “phage binding ELISA signal in presence of PSMA” value in test [2] was found to be 0.1.

B12: Phage-2908 (peptide)
peptide: LGLACIPEWMCVGF
notes: as for B3
Take B12: the “Phage binding ELISA signal, Anti-PSMA Fab” value in test [3] is 2.33. In addition, the “Phage binding ELISA signal, Anti-PSMA Fab in presence of PSMA” value in test [4] was determined as 0.0789.

B13: Phage-2916 (peptide)
peptide: VDRMCVPKWMCEGL
notes: as for B3
Regarding B13, the “Phage binding ELISA signal, Anti-PSMA Fab” value in test [3] worked out at 2.32. The “Phage binding ELISA signal, Anti-PSMA Fab in presence of PSMA” value in test [4] stood at 0.0971.

B14: Phage-2919 (peptide)
peptide: VDPMCIPRWMCSFL
notes: as for B3
B14: in test [3], the “Phage binding ELISA signal, Anti-PSMA Fab” value is 2.32. Further, the “Phage binding ELISA signal, Anti-PSMA Fab in presence of PSMA” value in test [4] stood at 0.0867.

B15: Phage-2918 (peptide)
peptide: LPRICVPEWMCLGF
notes: as for B3
On to B15, for which, in test [3], the “Phage binding ELISA signal, Anti-PSMA Fab” value was determined as 2.32. Besides, the “Phage binding ELISA signal, Anti-PSMA Fab in presence of PSMA” value in test [4] turned out to be 0.0919.

B16: Phage-2894 (peptide)
peptide: VLKMCEPLWMCVGF
On to B16, for which, in test [1], the “phage binding ELISA signal” value was determined as 2.35. The “phage binding ELISA signal in presence of PSMA” value in test [2] came to 0.117.

B17: Phage-2924 (peptide)
peptide: VGKMCVPEWMCHGF
notes: tested as crude phage supernatant
On to B17, for which the “Phage binding ELISA signal, Anti-PSMA Fab” value in test [5] is 2.31. Further, in test [6], the “Phage binding ELISA signal, Anti-PSMA Fab with PSMA antigen” value is 0.082.

B18: Phage-2913 (peptide)
peptide: GERWCTPPWMCVGL
notes: as for B3
On to B18, for which, in test [3], the “Phage binding ELISA signal, Anti-PSMA Fab” value is 2.32. For the same molecule, the “Phage binding ELISA signal, Anti-PSMA Fab in presence of PSMA” value in test [4] stood at 0.116.

B19: Phage-2911 (peptide)
peptide: EKPVCVPSWMCTGF
notes: as for B3
For B19, in test [3], the “Phage binding ELISA signal, Anti-PSMA Fab” value stood at 2.33. In test [4], the “Phage binding ELISA signal, Anti-PSMA Fab in presence of PSMA” value was determined as 0.098.

B20: Phage-2921 (peptide)
peptide: ISHMCKPVWMCSGL
notes: as for B17
Regarding B20, the “Phage binding ELISA signal, Anti-PSMA Fab” value in test [5] is 2.31. Also, the “Phage binding ELISA signal, Anti-PSMA Fab with PSMA antigen” value in test [6] is 0.125.

B21: Phage-2903 (peptide)
peptide: VTPACVPTWMCYGF
Take B21: in test [1], the “phage binding ELISA signal” value turned out to be 2.34. Further, the “phage binding ELISA signal in presence of PSMA” value in test [2] came to 0.116.

B22: Phage-2906 (peptide)
peptide: VEPSCVPYWMCLGF
modifications: cysteine pairing not given here; also: peptide displayed as fusion to phage pIII
notes: as for B3
In the case of B22, in test [3], the “Phage binding ELISA signal, Anti-PSMA Fab” value was 2.33. In addition, the “Phage binding ELISA signal, Anti-PSMA Fab in presence of PSMA” value in test [4] is 0.0835.

B23: Phage-2900 (peptide)
peptide: PWLMCKPAWMCTGF
Regarding B23, the “phage binding ELISA signal” value in test [1] is 2.34. In addition, the “phage binding ELISA signal in presence of PSMA” value in test [2] is 0.183.

B24: Phage-2910 (peptide)
peptide: AVPLCMPKWMCTGF
notes: as for B3
On to B24, for which the “Phage binding ELISA signal, Anti-PSMA Fab” value in test [3] was 2.33. In test [4], the “Phage binding ELISA signal, Anti-PSMA Fab in presence of PSMA” value is 0.0971.

B25: Phage-2901 (peptide)
peptide: VTPKCVPMWMCAGF
Turning to B25, the “phage binding ELISA signal” value in test [1] came to 2.34. Besides, in test [2], the “phage binding ELISA signal in presence of PSMA” value amounted to 0.123.

B26: Phage-2923 (as printed at r2443/r2444; SEQ ID NO: 3238) (peptide)
peptide: VWPRCEPQWMCAGF
modifications: cysteine pairing not given here; also: peptide displayed as fusion to phage pIII
notes: tested as crude phage supernatant; The label 2923 is printed twice (r2444 and r2446); by the order this row is probably Phage-2922; also called probably Phage-2922
B26: the “Phage binding ELISA signal, Anti-PSMA Fab” value in test [5] was determined as 2.31. Besides, the “Phage binding ELISA signal, Anti-PSMA Fab with PSMA antigen” value in test [6] was determined as 0.0854.

B27: Phage-2920 (peptide)
peptide: LAIMCRPAWMCSGF
notes: as for B17
Regarding B27, the “Phage binding ELISA signal, Anti-PSMA Fab” value in test [5] stood at 2.31. Besides, in test [6], the “Phage binding ELISA signal, Anti-PSMA Fab with PSMA antigen” value was found to be 0.112.

B28: Phage-2898 (peptide)
peptide: NWPVCKPMWMCTGF
B28: the “phage binding ELISA signal” value in test [1] is 2.34. In addition, the “phage binding ELISA signal in presence of PSMA” value in test [2] was 0.155.

B29: Phage-2909 (peptide)
peptide: GEPVCKPAWMCEGF
notes: as for B3
As for B29, the “Phage binding ELISA signal, Anti-PSMA Fab” value in test [3] was determined as 2.33. Besides, the “Phage binding ELISA signal, Anti-PSMA Fab in presence of PSMA” value in test [4] came to 0.128.

B30: Phage-2923 (peptide)
peptide: VPKMCTPPWMCWGF
notes: as for B17
With B30, the “Phage binding ELISA signal, Anti-PSMA Fab” value in test [5] came to 2.31. In addition, the “Phage binding ELISA signal, Anti-PSMA Fab with PSMA antigen” value in test [6] worked out at 0.0934.

B31: Phage-2907 (peptide)
peptide: AEMRCIPEWMCSGF
notes: as for B3
As to B31, the “Phage binding ELISA signal, Anti-PSMA Fab” value in test [3] worked out at 2.33. Further, the “Phage binding ELISA signal, Anti-PSMA Fab in presence of PSMA” value in test [4] worked out at 0.118.
